The values that follow come from PMC4374719, “Herpesviral G Protein-Coupled Receptors Activate NFAT to Induce Tumor Formation via Inhibiting the SERCA Calcium ATPase” (PLoS Pathogens, 2015).

This assay concerns the target T1, KSHV G protein-coupled receptor (kGPCR), stably expressed in HUVEC (Kaposi's sarcoma-associated herpesvirus …, UniProt Q98146 1-342).
T1 construct: GPCR homologue of Kaposi's sarcoma-associated herpesvirus (kGPCR); Probably HA-tagged like the other constructs, but no tag and no primary antibody is named for the proximity ligation assay; also called HUVEC/kGPCR
T1 sequence: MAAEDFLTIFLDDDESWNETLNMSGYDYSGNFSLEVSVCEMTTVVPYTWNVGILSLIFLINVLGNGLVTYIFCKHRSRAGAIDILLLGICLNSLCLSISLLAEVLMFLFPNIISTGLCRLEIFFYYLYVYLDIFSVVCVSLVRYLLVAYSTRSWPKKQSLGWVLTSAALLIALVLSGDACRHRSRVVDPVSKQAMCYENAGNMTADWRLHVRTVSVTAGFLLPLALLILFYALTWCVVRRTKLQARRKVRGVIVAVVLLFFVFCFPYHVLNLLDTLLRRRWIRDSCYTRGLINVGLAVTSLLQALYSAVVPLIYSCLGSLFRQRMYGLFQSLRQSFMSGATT
The assay is described as follows: proximity ligation; Duolink in situ kit on fixed HUVEC-Vector or HUVEC-kGPCR stable cells; spots counted in more than 100 cells of each group. Particulars: partners not purified.

Where only a bound is given, the exact number is not on record here.

B1: sarco/endoplasmic reticulum calcium ATPase 2 (SERCA2), endogenous in HUVEC (enzyme, human (endogenous in HUVEC), UniProt P16615 1-1042, looked up)
chain: MENAHTKTVEEVLGHFGVNESTGLSLEQVKKLKERWGSNELPAEEGKTLLELVIEQFEDLLVRILLLAACISFVLAWFEEGEETITAFVEPFVILLILVANAIVGVWQERNAENAIEALKEYEPEMGKVYRQDRKSVQRIKAKDIVPGDIVEIAVGDKVPADIRLTSIKSTTLRVDQSILTGESVSVIKHTDPVPDPRAVNQDKKNMLFSGTNIAAGKAMGVVVATGVNTEIGKIRDEMVATEQERTPLQQKLDEFGEQLSKVISLICIAVWIINIGHFNDPVHGGSWIRGAIYYFKIAVALAVAAIPEGLPAVITTCLALGTRRMAKKNAIVRSLPSVETLGCTSVICSDKTGTLTTNQMSVCRMFILDRVEGDTCSLNEFTITGSTYAPIGEVHKDDKPVNCHQYDGLVELATICALCNDSALDYNEAKGVYEKVGEATETALTCLVEKMNVFDTELKGLSKIERANACNSVIKQLMKKEFTLEFSRDRKSMSVYCTPNKPSRTSMSKMFVKGAPEGVIDRCTHIRVGSTKVPMTSGVKQKIMSVIREWGSGSDTLRCLALATHDNPLRREEMHLEDSANFIKYETNLTFVGCVGMLDPPRIEVASSVKLCRQAGIRVIMITGDNKGTAVAICRRIGIFGQDEDVTSKAFTGREFDELNPSAQRDACLNARCFARVEPSHKSKIVEFLQSFDEITAMTGDGVNDAPALKKAEIGIAMGSGTAVAKTASEMVLADDNFSTIVAAVEEGRAIYNNMKQFIRYLISSNVGEVVCIFLTAALGFPEALIPVQLLWVNLVTDGLPATALGFNPPDLDIMNKPPRNPKEPLISGWLFFRYLAIGCYVGAATVGAAAWWFIAADGGPRVSFYQLSHFLQCKEDNPDFEGVDCAIFESPYPMTMALSVLVTIEMCNALNSLSENQSLLRMPPWENIWLVGSICLSMSLHFLILYVEPLPLIFQITPLNVTQWLMVLKISLPVILMDETLKFVARNYLEPGKECVQPATKSCSFSACTDGISWPFVLLIMPLVIWVYSTDTNFSDMFWS
notes: SERCA2 of human umbilical vein endothelial cells; source: endogenous, HUVEC, in fixed cells
For B1, the “fold of proximity ligation fluorescent spots over control HUVEC cells” value was above 10 fold.
